From US20260176354A1, “ANTIBODY BINDING TO CD22, AND BISPECIFIC ANTIBODY, CHIMERIC ANTIGEN RECEPTOR AND ANTIBODY-DRUG CONJUGATE COMPRISING SAME, AND USE THEREOF” (THE ASAN FOUNDATION, priority 2022, published 2026)

T1: human CD22-His protein (Sino Biological Inc.) (human, UniProt P20273 20-687)
T1 construct: Bought protein coated on the ELISA plate (100 ng/well); not shown: His tag
T1 sequence (looked up): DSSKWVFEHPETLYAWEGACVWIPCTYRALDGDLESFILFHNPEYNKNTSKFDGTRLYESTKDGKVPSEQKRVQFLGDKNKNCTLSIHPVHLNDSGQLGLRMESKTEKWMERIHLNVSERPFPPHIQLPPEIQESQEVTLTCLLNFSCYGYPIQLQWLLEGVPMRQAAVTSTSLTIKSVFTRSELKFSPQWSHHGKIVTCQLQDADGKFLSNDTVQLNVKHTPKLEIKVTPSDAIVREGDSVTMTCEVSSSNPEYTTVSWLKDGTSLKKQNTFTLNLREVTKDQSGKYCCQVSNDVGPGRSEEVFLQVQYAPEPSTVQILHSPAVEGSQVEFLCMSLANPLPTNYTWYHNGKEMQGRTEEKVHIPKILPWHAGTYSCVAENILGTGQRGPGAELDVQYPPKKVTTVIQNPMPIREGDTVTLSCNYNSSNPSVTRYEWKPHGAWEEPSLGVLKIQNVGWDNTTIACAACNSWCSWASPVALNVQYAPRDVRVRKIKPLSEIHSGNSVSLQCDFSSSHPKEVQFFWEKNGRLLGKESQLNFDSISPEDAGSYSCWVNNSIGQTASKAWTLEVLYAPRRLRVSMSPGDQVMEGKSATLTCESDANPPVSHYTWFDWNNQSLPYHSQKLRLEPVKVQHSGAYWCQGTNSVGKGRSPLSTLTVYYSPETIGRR

T2: human CD22-His protein (Homo sapiens, UniProt P20273)
T2 construct: His; purchased Sino Biological Inc., Beijing, China
T2 sequence (P20273 20-847): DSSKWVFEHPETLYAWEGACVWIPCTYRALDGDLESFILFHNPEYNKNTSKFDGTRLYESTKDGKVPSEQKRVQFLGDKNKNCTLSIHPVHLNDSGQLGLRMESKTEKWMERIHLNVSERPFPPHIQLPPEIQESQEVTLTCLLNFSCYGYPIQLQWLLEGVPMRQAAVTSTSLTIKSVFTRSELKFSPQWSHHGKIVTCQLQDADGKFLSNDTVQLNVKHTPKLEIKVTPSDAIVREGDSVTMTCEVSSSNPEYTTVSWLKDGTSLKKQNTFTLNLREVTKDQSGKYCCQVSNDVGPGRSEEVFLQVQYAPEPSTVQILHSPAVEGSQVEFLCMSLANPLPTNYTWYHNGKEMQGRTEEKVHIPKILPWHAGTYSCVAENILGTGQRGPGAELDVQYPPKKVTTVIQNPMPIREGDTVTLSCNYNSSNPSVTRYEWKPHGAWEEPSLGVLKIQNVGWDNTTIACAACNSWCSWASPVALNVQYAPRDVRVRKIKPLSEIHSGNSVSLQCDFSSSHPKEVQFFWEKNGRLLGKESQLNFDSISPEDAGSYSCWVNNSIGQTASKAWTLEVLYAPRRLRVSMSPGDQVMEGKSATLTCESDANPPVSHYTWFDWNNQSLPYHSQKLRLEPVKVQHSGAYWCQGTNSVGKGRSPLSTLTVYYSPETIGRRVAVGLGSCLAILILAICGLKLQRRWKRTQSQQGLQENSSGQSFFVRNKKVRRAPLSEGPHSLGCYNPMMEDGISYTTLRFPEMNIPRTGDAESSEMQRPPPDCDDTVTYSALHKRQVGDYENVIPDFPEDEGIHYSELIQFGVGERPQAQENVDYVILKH


What was measured:
[1] = target: T1, human CD22-His protein (Sino Biological …); assay: ELISA, human CD22-His coated, anti-human IgG Fc-HRP detection
Experimental: Microtiter plates (Corning Inc., MA, USA) were coated overnight at 4° C. with human CD22-His protein (100 ng/well, Sino Biological Inc., Beijing, China). The wells were blocked for 1 hour at 37° C. with 150 μl of 3% BSA (w/v) in PBS, after which serial dilutions of the IgG protein prepared in 3% BSA in PBS were added to each well. After incubation for 1.5 hours at 37° C., the plates were washed three times with PBST (PBS containing 0.05% Tween-20), followed by incubation for 1 hour at 37° C. with an HRP-conjugated anti-human IgG (Fc-specific) antibody (Thermo Fisher Scientific, USA). The plates were washed three times with PBST, and the amount of bound antibody was determined by adding 2,2′-azino-bis(3-ethylbenzothiazoline-6-sulfonic acid) (Thermo Fisher Scientific Inc., MA, USA). The resulting OD₄₀₅ was measured using a microplate spectrophotometer.

[2] = target: T1, human CD22-His protein (Sino Biological …); assay: ELISA, human CD22-His coated, anti-human Cκ-HRP detection
Experimental: (§1) Microtiter plates (Corning Inc., MA, USA) were coated overnight at 4° C. with human CD22-His protein (100 ng/well, Sino Biological Inc., Beijing, China). The wells were blocked for 1 hour at 37° C. with 150 μl of 3% BSA (w/v) in PBS, and serial dilutions of the anti-CD22 scFv-Cκ-HA fusion protein, prepared in 3% BSA in PBS, were added to each well. After incubation for 1.5 hours at 37° C., the plates were washed three times with PBST (PBS containing 0.05% Tween-20), followed by incubation for 1 hour at 37° C. with an HRP-conjugated anti-human CK antibody (Millipore, CA, USA). The plates were washed three times with PBST, and the amount of bound antibody was determined by adding 2,2′-azino-bis(3-ethylbenzothiazoline-6-sulfonic acid) (Thermo Fisher Scientific Inc., MA, USA). The resulting OD₄₀₅ was measured using a microplate spectrophotometer.

human CD22-His protein = target: T2, human CD22-His protein; assay: ELISA analysis using anti-CD22 scFv-Cκ-HA fusion protein; type: binding; settings: serial dilutions, coated human CD22-His 100 ng/well, FIG. 1
Experimental: as §1, with “OD405” for “OD₄₀₅”

OCI-Ly7 cells = assay: Flow cytometry analysis using anti-CD22 scFv-Cκ-HA fusion protein; type: binding, human; settings: scFv-Cκ-HA fusion protein 0.25 μM; FIG. 2
Experimental: OCI-Ly7 cells were aliquoted into 1.5 ml tubes at a density of 3×10^5 cells per tube. The anti-CD22 scFv-Cκ-HA fusion protein (0.25 μM) was added to each tube, followed by incubation on ice for 30 minutes. After washing twice with MACS buffer (Miltenyi Biotec), the cells were incubated with Alexa Fluor 647-labeled mouse anti-HA antibody (Clone #912426, R&D Systems, MN, USA) on ice for 30 minutes. Then, the cells were washed twice with MACS buffer, resuspended in 150 μL of 1% paraformaldehyde in MACS buffer, and stored overnight at 4° C. The cells were analyzed by flow cytometry using a FACS Canto II instrument (BD Bioscience, San Jose, CA, USA). For each sample, 10,000 cells were analyzed.

Row | Molecule | binding result [1] | further results
1 | anti-CD22 IgG protein 2-3-14 (antibody, V domains shown, also called Feb; 3, 2014) VH: AVTLDESGGGLQTPGGGLSLVCKASGFSFSDYGMGWVRQAPGKGLEFVASISNTGSYTDYGAAVKGRATISRDNGQSTLRLQLNNLRAEDTGTYFCAKSAYGGSYGSSSIDAWGHGTEVIVSS VL: LTQPSSVSANPGETVKITCSGSNNTYGWYQQKAPGSAPVTVIYDNTNRPSDIPSRFSGSKSGSTNTLTITGVQAEDEAVYFCGSRDSTYVGIFGAGTTLTVLR | binds | –
2 | anti-CD22 IgG protein 2-3-14_H1-24 (antibody, V domains shown) VH: AVTLDESGGGLQTPGGGLSLVCKASGFAFGRSSMGWVRQAPGKGLEFVASISNTGSYTDYGAAVKGRATISRDNGQSTLRLQLNNLRAEDTGTYFCAKSAYGGSYGSSSIDAWGHGTEVIVSS VL: LTQPSSVSANPGETVKITCSGSNNTYGWYQQKAPGSAPVTVIYDNTNRPSDIPSRFSGSKSGSTNTLTITGVQAEDEAVYFCGSRDSTYVGIFGAGTTLTVLR | binds | –
3 | anti-CD22 IgG protein 2-3-14_H2-40 (antibody, V domains shown) VH: AVTLDESGGGLQTPGGGLSLVCKASGFSFSDYGMGWVRQAPGKGLEFVAFLGSSSSYTDYGAAVKGRATISRDNGQSTLRLQLNNLRAEDTGTYFCAKSAYGGSYGSSSIDAWGHGTEVIVSS VL: LTQPSSVSANPGETVKITCSGSNNTYGWYQQKAPGSAPVTVIYDNTNRPSDIPSRFSGSKSGSTNTLTITGVQAEDEAVYFCGSRDSTYVGIFGAGTTLTVLR | binds | –
4 | recombinant anti-CD22 scFv-Cκ-HA fusion protein CI4-47 (scFv, Chicken-derived scFv fused to a human constant kappa region and an HA tag; expressed in HEK293F cells, purified on KappaSelect; also called CI4-47 scFv-Cκ-HA) scFv: LTQPSSVSANPGETVKITCSGGSGGYGWYQQKSPGSAPVSLIYDNDQRPSDIPSRFSGSKSGSTGTLTITGVQADDEAVYYCGSYDSSYVGIFGAGTTLTVLGGGGSGGGGSGGGGSAVTLDESGGGLQTPGGALSLVCKASGFTFSNYCMQWVRQAPGKGLEWVAGIGSSGTGTYYGSAVRGRATISRDNGQSTVRLQLNNLRAEDTGTYYCARDYGSDSGCGWGIYAGEIDAWGHGTEVIVSSGGGGSGGGGSGGGGSRTVAAPSVFIFPPSDEQLKSGTASVVCLLNNFYPREAKVQWKVDNALQSGNSQESVTEQDSKDSTYSLSSTLTLSKADYEKHKVYACEVTHQGLSSPVTKSFNRGESGGAYPYDVPDYAS | – | binding result [2]: binds
5 | CI4-47: recombinant anti-CD22 scFv-Cκ-HA fusion protein (protein) scFv: LTQPSSVSANPGETVKITCSGGSGGYGWYQQKSPGSAPVSLIYDNDQRPSDIPSRFSGSKSGSTGTLTITGVQADDEAVYYCGSYDSSYVGIFGAGTTLTVLGGGGSGGGGSGGGGSAVTLDESGGGLQTPGGALSLVCKASGFTFSNYCMQWVRQAPGKGLEWVAGIGSSGTGTYYGSAVRGRATISRDNGQSTVRLQLNNLRAEDTGTYYCARDYGSDSGCGWGIYAGEIDAWGHGTEVIVSSGGGGSGGGGSGGGGSRTVAAPSVFIFPPSDEQLKSGTASVVCLLNNFYPREAKVQWKVDNALQSGNSQESVTEQDSKDSTYSLSSTLTLSKADYEKHKVYACEVTHQGLSSPVTKSFNRGESGGAYPYDVPDYAS | – | binding to CD22 (enzyme immunoassay, OD405) (human CD22-His protein): bind well; binding to OCI-Ly7 cells (flow cytometry) (OCI-Ly7 cells): strong binding
6 | anti-CD22 IgG protein CI4-47_8-1_H1-2-37 (antibody, V domains shown) VH: EVQLLESGGGLVQPGGSLRLSCAASGFTFSRHGMYWVRQAPGKGLEWVSGIGSSGTGTYYGSAVRGRFTISRDNSKNTLYLQMNSLRAEDTAVYYCARDYGSDSGVGWGIYAGEIDAWGQGTLVTVSS VL: LTQPPSVSVSPGQTARITCSGGSGGYGWYQQKPGSAPVSVIYDNDQRPSGIPERFSGSSSGTTVTLTISGVQAEDEADYYCGSYDSSYVGIFGGGTKLTVLR | binds | –
7 | recombinant anti-CD22 scFv-Cκ-HA fusion protein 2-3-14 (scFv, The text prints the clone name 2-3-14 as 'Feb; 3, 2014' in several paragraphs (date conversion artefact); also called Feb; 3, 2014; 2-3-14 scFv-Cκ-HA) scFv: LTQPSSVSANPGETVKITCSGSNNTYGWYQQKAPGSAPVTVIYDNTNRPSDIPSRFSGSKSGSTNTLTITGVQAEDEAVYFCGSRDSTYVGIFGAGTTLTVLGGGGSGGGGSGGGGSAVTLDESGGGLQTPGGGLSLVCKASGFSFSDYGMGWVRQAPGKGLEFVASISNTGSYTDYGAAVKGRATISRDNGQSTLRLQLNNLRAEDTGTYFCAKSAYGGSYGSSSIDAWGHGTEVIVSSGGGGSGGGGSGGGGSRTVAAPSVFIFPPSDEQLKSGTASVVCLLNNFYPREAKVQWKVDNALQSGNSQESVTEQDSKDSTYSLSSTLTLSKADYEKHKVYACEVTHQGLSSPVTKSFNRGESGGAYPYDVPDYAS | – | binding result [2]: binds

More lines, main results first:

Row | binding result [1] | Molecule | further results
8 | binds | anti-CD22 IgG protein CI4-47_8-1 (antibody, V domains shown) VH: EVQLLESGGGLVQPGGSLRLSCAASGFTFSNYCMSWVRQAPGKGLEWVSGIGSSGTGTYYGSAVRGRFTISRDNSKNTLYLQMNSLRAEDTAVYYCARDYGSDSGCGWGIYAGEIDAWGQGTLVTVSS VL: LTQPPSVSVSPGQTARITCSGGSGGYGWYQQKPGSAPVSVIYDNDQRPSGIPERFSGSSSGTTVTLTISGVQAEDEADYYCGSYDSSYVGIFGGGTKLTVLR | –
9 | binds | anti-CD22 IgG protein CI4-47_8-1_H1-2-1 (antibody, V domains shown) VH: EVQLLESGGGLVQPGGSLRLSCAASGFTFSKHGHYWVRQAPGKGLEWVSGIGSSGTGTYYGSAVRGRFTISRDNSKNTLYLQMNSLRAEDTAVYYCARDYGSDSGIGWGIYAGEIDAWGQGTLVTVSS VL: LTQPPSVSVSPGQTARITCSGGSGGYGWYQQKPGSAPVSVIYDNDQRPSGIPERFSGSSSGTTVTLTISGVQAEDEADYYCGSYDSSYVGIFGGGTKLTVLR | –
